From US20210032351A1 (XDCEXPLORER SHANGHAI, published 2021)

Key:
[1] = biological target: T1, human EGFRvIII protein on the cell surface (human, UniProt P00533 25-1210); experiment: FACS on U87MG-EGFRvIII cells
T1 construct: whole, on cells; the cell line is named under assay; also called hEGFRvIII; U87MG-hEGFRvIII
Procedure: (§1) The preparation of U87MG-EGFRvIII required for FACS detection is as described in the preparation of the immunogen B in example 1. Normal human primary hepatocytes are purchased from BioreclamationIVT, and A431 tumor cells are purchased from ATCC. The recovered hepatocytes are directly used for FACS detection, and the recovered U87MG-EGFRvIII and A431 cells are subjected to an expanded culture to 90% confluence in a T-75 cell culture flask; the medium is sucked out, and the cells are washed twice with a HBSS buffer (Hanks Balanced Salt Solution) (purchased from Invitrogen), and then treated with an enzyme-free cell dissociation solution (Versene solution: purchased from Life Technology) and collected. The cells are washed twice with the HBSS buffer and are counted, and then the cells are diluted with the HBSS buffer to 2×10⁶ cells/ml, added with 1% goat serum blocking solution, with the percentage being the mass percentage, and incubated on ice for 30 minutes, and then centrifugally washed twice with the HBSS buffer. The collected cells are resuspended to 2×10⁶ cells/mL with an FACS buffer (HBSS+2% FBS, with the percentage being the volume percentage), added to a 96-well FACS reaction plate at 100 μL/well, then added with 100 μL/well of the purified EGFRvIII antibody (samples to be tested) obtained in example 12, and incubated on ice for 2 hours. The plate is centrifugally washed twice with the FACS buffer, added with 100 μL/well of a 1:1000 diluted fluorescence (Alexa 488) labeled secondary antibody (purchased from Invitrogen), and incubated on ice for 1 hour. The plate is centrifugally washed 3 times with the FACS buffer, added with 100 μL/well of a fixing solution [4% (v/v) paraformaldehyde] to resuspend the cells, and centrifugally washed twice with the FACS buffer after 10 minutes. The cells are resuspended in 100 μL of the FACS buffer, and the results are detected and analyzed by FACS (FACS Calibur, purchased from BD). Data analysis is performed by using the software (CellQuest) to obtain the mean fluorescence intensity (MFI) of the cells. Data is further analyzed by using the software (GraphPad Prism5) to perform data fitting and calculate EC50.

[2] = biological target: T2, human wild-type EGFR protein on the cell surface (human, UniProt P00533 25-1210); experiment: FACS, MFI on A431 cells over MFI on normal primary hepatocytes
T2 construct: whole, on cells; Endogenous on A431, HEB, U87MG cells and normal human primary hepatocytes; transfected on CHOk1-EGFR cells; The cell is named under assay; also called A431; HEB
Procedure: as §1

[3] = biological target: T3, human EGFRvIII-hFc protein (human, UniProt P00533 25-645); experiment: ELISA, EGFRvIII-hFc coated
T3 construct: extracellular domain; also called immunogen A; hFc-tagged EGFRvIII protein; not shown: human IgG Fc fragment (hFc) of the pCpC vector
Procedure: The purified humanized anti-EGFRvIII antibody obtained in example 12 is reacted with a human EGFRvIII-hFc protein.
The purified immunogen A (EGFRvIII-hFc) obtained in example 1 (for the preparation method, see step (I) in example 1) is diluted with PBS to a final concentration of 1.0 μg/mL, and then added to a 96-well ELISA plate at 100 μl/well. The plate is sealed with a plastic film and incubated at 4° C. overnight. The next day, the plate is washed twice with a plate washing solution [PBS+0.01% (v/v) Tween20], and added with a blocking solution [PBS+0.01% (v/v) Tween20+1% (w/w) BSA] for blocking 2 hours at room temperature. […] The plate is incubated for 2 hours at 37° C., and then washed 3 times with the plate washing solution [PBS+0.01% (v/v) Tween20]. The plate is added with an HRP (horseradish peroxidase) labeled secondary antibody (purchased from Sigma), incubated at 37° C. for 2 hours, and then washed 3 times with the plate washing solution [PBS+0.01% (v/v) Tween20]. The plate is added with 100 μl of TMB substrate/well, incubated for 30 minutes at room temperature, and then added with 100 μl of stopping solution (1.0N HCl)/well. A450 nm value is read using an ELISA plate reader (SpectraMax 384plus, purchased from Molecular Device).

[4] = biological target: T2, human wild-type EGFR protein on the …; experiment: FACS on normal human primary hepatocytes
Procedure: as §1

[5] = biological target: T2, human wild-type EGFR protein on the …; experiment: FACS on A431 tumor cells
Procedure: as §1

[6] = biological target: T4, human EGFRvIII-hFc protein (human, UniProt P00533 25-645); experiment: ELISA, coated EGFRvIII-hFc, antibody 10 nM
T4 construct: extracellular domain; made in HEK293 cells, purified on protein A; also called immunogen A; hFc-tagged EGFRvIII protein; not shown: human IgG Fc fragment (hFc) of the pCpC vector
Procedure: (§2) The purified immunogen A (EGFRvIII-hFc) obtained in example 1 (for the preparation method, see step (I) in example 1) is diluted with PBS to a final concentration of 1.0 μg/mL, and then added to a 96-well ELISA plate at 100 μl/well. The plate is sealed with a plastic film and incubated at 4° C. overnight. The next day, the plate is washed twice with a plate washing solution [PBS+0.01% (v/v) Tween20], and added with a blocking solution [PBS+0.01% (v/v) Tween20+1% (w/w) BSA] for blocking 2 hours at room temperature. The blocking solution is discarded, and the purified EGFRvIII antibody obtained in example 2 is added at 100 μl/well. The plate is incubated for 2 hours at 37° C., and then washed 3 times with the plate washing solution [PBS+0.01% (v/v) Tween20]. The plate is added with an HRP (horseradish peroxidase) labeled secondary antibody (purchased from Sigma), incubated at 37° C. for 2 hours, and then washed 3 times with the plate washing solution [PBS+0.01% (v/v) Tween20]. The plate is added with 100 μl of TMB substrate/well, incubated for 30 minutes at room temperature, and then added with 100 μl of stopping solution (1.0N HCl)/well. A450 nm value is read using an ELISA plate reader (SpectraMax 384plus, purchased from Molecular Device), and the results are shown in FIG. 6 and table 10.

[7] = biological target: T4, human EGFRvIII-hFc protein; experiment: ELISA, coated EGFRvIII-hFc, antibody 1 nM
Procedure: as §2

[8] = biological target: T5, human EGFR protein (wild-type), on cells (human, UniProt P00533 25-1210); experiment: FACS on U87MG and HEB cells
T5 construct: whole, on cells; transfected on CHO-K1 cells; endogenous on the human cell lines; the cell is named under assay; also called wild-type EGFR; hEGFR
Procedure: The collected cells are suspended to 2×10⁶ cells/mL with an FACS buffer (HBSS+1% BSA, with the percentage being the mass percentage), added to a 96-well FACS reaction plate at 100 μL/well, then added with 100 μL/well of the purified EGFRvIII antibody (samples to be tested) obtained in example 2, and incubated on ice for 2 hours. The plate is centrifugally washed twice with the FACS buffer, added with 100 μL/well of a fluorescence (Alexa 488) labeled secondary antibody (purchased from Invitrogen), and then incubated on ice for 1 hour. The plate is centrifugally washed 3 times with the FACS buffer, added with 100 μL/well of a fixing solution [4% (v/v) paraformaldehyde] for suspending the cells, and centrifugally washed twice with the FACS buffer after 10 minutes. The cells are suspended in 100 μL of the FACS buffer, and the results are detected and analyzed by FACS (FACS Calibur, purchased from BD). Data analysis is performed by using the software (CellQuest) to obtain the mean fluorescence intensity (MFI) of the cells. Data is further analyzed by using the software (GraphPad Prism5) to perform data fitting and calculate EC50. […] A431 cells (human epidermal cell cancer cell lines) have a large amount of wild-type EGFR protein expressed on the surface thereof. […] U87MG cells (human glioma cell lines) have a small amount of wild-type EGFR protein expressed on the surface thereof, while HEB cells (human glioma cell lines) have a high level of wild-type EGFR protein expression on the surface thereof.

[9] = biological target: T4, human EGFRvIII-hFc protein; experiment: ELISA, coated EGFRvIII-hFc, antibody 0.001 nM
Procedure: as §2

[10] = biological target: T4, human EGFRvIII-hFc protein; experiment: ELISA, coated EGFRvIII-hFc, antibody 0.1 nM
Procedure: as §2

[11] = biological target: T4, human EGFRvIII-hFc protein; experiment: ELISA, coated EGFRvIII-hFc, antibody 0.01 nM
Procedure: as §2

[12] = biological target: T4, human EGFRvIII-hFc protein; experiment: ELISA, coated EGFRvIII-hFc, antibody 100 nM
Procedure: as §2

[13] = biological target: T4, human EGFRvIII-hFc protein; experiment: ELISA, coated EGFRvIII-hFc, antibody 0.0001 nM
Procedure: as §2

EC50 [1]	Maximum mean fluorescence intensity [1]	Selective window (MFI A431/Hepatocytes) [2]	EC50 [3]	Maximum OD450 value [3]	MFI [4]	MFI [5]	OD450 nm [6]	OD450 nm [7]	binding result [8]	OD450 nm [9]	OD450 nm [10]	OD450 nm [11]	OD450 nm [12]	OD450 nm [13]	Binder
5.83 nM	18200 MFI	45 fold	0.58 nM	2.83 OD450	238 MFI	10700 MFI									Humanized antibody h75G7C6-9 (antibody, human IgG1, V domains shown, also called VH-g1/VL-g0) VH: QVQLVQSGAEVKKPGASVKVSCKASGYTFTDYNMDWVRQAPGQGLEWIGDINPNNADTIYNQKFKGRVTLTVDTSTSTVYMELSSLRSEDTAVYYCARGDYDGYYPVYYAMDYWGQGTTVTVSS VL: EIVLTQSPATLSLSPGERATLSCRASSSVSSSYLHWYQQKPGQAPRLLIYSTSNLAAGIPARFSGSGSGTDFTLTISSLEPEDFAVYYCQQYSGYPLTFGGGTKVEIK
							3.63	1.58	no binding	0.08	0.24	0.09	3.64	0.08	Murine anti-64B11 (antibody, V domains shown, murine hybridoma antibody; also called 64B11F2) VH: EVQLQQSGAELVKPGASVKLSCTASGFNIKDYYMHWVKQRTEQGLEWIGRIDPEDGETKYAPKFQGKATITADTSSNTAYLQLSNLPSEDTAVYYCGCRTGGFAYWGQGTLVTVSA VL: DILMTQSPSSMSVSLGDTVSITCHASQGINSNIGWLQQKPGKSFKALIYHGTNLEDGVPSRFSGSGSGADYSLTISSLESEDFADYYCVQYAQFPFTFGSGTELEIK
							3.85	3.5	no binding	0.09	0.72	0.15	3.83	0.08	Murine anti-46C4 (antibody, V domains shown, murine hybridoma antibody; also called 46C4A6) VH: EVHLQQSVAELVRPGASVKLSCTASGFNIKNTYMHWVKQRPEQGLEWIGRIDPANGNTKYAPKFQGKATITADTSSNTAYLQLSSLTSEDTAIYYCASDFDYWGQGTTLTVSS VL: DVLMTQTPLSLPVSLGDQVSISCRSSQSIVNSNGNTHLEWYLQKPGQSPKVLIYKVSKRFSGVPDRFSGSGSGTDFTLKISRVEAEDLGVYYCFQGSHVPYTFGGGTKLEIK
							3.8	3.2	no binding	0.13	0.64	0.14	3.79	0.08	Murine anti-49G12 (antibody, V domains shown, murine hybridoma antibody; also called 49G12G5) VH: EVQLLQSGAELVKPGASVKLSCTASGFNIKDYYMHWVKQRTEQGLEWIGRIDPEDGETKYAPKFQGKATMTADTSSNTAYLQLSSLTSEDTAVYYCASSAYYGRNYWGQGTTLTVSS VL: QIVLTQSPAIMSASPGEKVTLTCSASSSLSSSYLYWYQQKPGSSPKLWIYSTSNLASGVPARFSGSGSGTSYSLTISSMEAEDAASYFCHQWSSYPYTFGGGTKLEIK
							3.69	2.44	no binding	0.09	0.46	0.15	3.68	0.08	Murine anti-51G7 (antibody, V domains shown, murine hybridoma antibody; also called 51G7C2) VH: EVQLQQSGAELVKPGASVKLSCTASGFNIKDFYIHWVKQRTEQGLEWIGRIDPEDGETKYAPKFQDKATIIADTSSNTAYLQLSSLTSEDTAVYYCASSSYYGNNYWGQGTTLTVSS VL: QIVLTQSPAIMSASPGEKVTLTCSASSSVSSNYLYWYQQKPGSSPKLWIYSTSNLASGVPARFSGSGSGTSYSLTISSMEAEDAASYFCHQWSSFPYTFGGGTKLEIK
